The results in this text go back to patent US20170042969A1.

In the test the target is ornithine decarboxylase (ODC) present in Xenopus laevis oocytes. Nature of the test: cell-based or functional assay.

B1: hRS1-Reg(S20E) (protein, not shown: small tags and cut ends)
chain: SSGQEPDVGNPMSLARSVSASVCPIKPSDSDRIEPKAVKALKASAEFQLNSEKKEHLSLQDLSDHASSADHAPTDQSPAMPMQ
With B1, the IC50 for down-regulation of hSGLT1 at low intracellular AMG, against hRS1-Reg wildtype came to 6300 times; the affinity for down-regulation of hSGLT1 in the presence of intracellular glucose, against hRS1-Reg wildtype worked out at 1.5e+07 times; the change of IC50 for down-regulation of hSGLT1 at high intracellular AMG (~250 µM) against low AMG came out at 300 fold; the increase of affinity for down-regulation of hSGLT1 against hRS1-Reg wildtype or hRS1-Reg(S20A) is 4000 to 6000 fold.

B2: hRS1-Reg(S20A) (protein, not shown: small tags and cut ends)
chain: SSGQAPDVGNPMSLARSVSASVCPIKPSDSDRIEPKAVKALKASAEFQLNSEKKEHLSLQDLSDHASSADHAPTDQSPAMPMQ
Regarding B2, the decrease of affinity for down-regulation of hSGLT1 at high intracellular glucose lay in the range of 7 to 8 fold.
